Test results published in paper PMC5758874 (Nucleic Acids Research, 2017).
Changes are numbered by the printed parent chain. In names and notes the source's numbering stands. Several values for one entry are separate records, joined by “and”; a condition that tells them apart may be missing. Identical values can stand only once. Like-named read-outs stand apart in the source and are kept apart here.

Tests used:
crystal structure [1] = biological target: the molecule itself; assay: crystal structure
crystal structure [2] = biological target: the molecule itself; assay: crystal structure; remark: listed apart in the source
SEC = biological target: the molecule itself; assay: SEC
RcsB WT [3] = biological target: T1, RcsB WT (Salmonella enterica serovar Typhimurium, UniProt P58663 1-210); assay: EMSA
T1 sequence: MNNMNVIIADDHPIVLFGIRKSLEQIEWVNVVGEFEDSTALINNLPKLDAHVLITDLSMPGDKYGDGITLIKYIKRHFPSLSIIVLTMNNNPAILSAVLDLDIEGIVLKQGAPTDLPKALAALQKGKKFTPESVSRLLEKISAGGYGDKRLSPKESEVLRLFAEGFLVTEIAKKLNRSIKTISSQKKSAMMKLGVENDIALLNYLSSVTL

RcsB H12A = biological target: T2, RcsB H12A (Salmonella enterica serovar Typhimurium, UniProt P58663 1-210, H12A); assay: EMSA
T2 sequence: T1 sequence with H12A

RcsB K180A = biological target: T3, RcsB K180A (Salmonella enterica serovar Typhimurium, UniProt P58663 1-210, K180A); assay: EMSA
T3 sequence: T1 sequence with K180A

RcsB L202D = biological target: T4, RcsB L202D (Salmonella enterica serovar Typhimurium, UniProt P58663 1-210, L202D); assay: EMSA
T4 sequence: T1 sequence with L202D

RcsB Q185A = biological target: T5, RcsB Q185A (Salmonella enterica serovar Typhimurium, UniProt P58663 1-210, Q185A); assay: EMSA
T5 sequence: T1 sequence with Q185A

RcsB L202F = biological target: T6, RcsB L202F (Salmonella enterica serovar Typhimurium, UniProt P58663 1-210, L202F); assay: EMSA
T6 sequence: T1 sequence with L202F

RcsB D56A = biological target: T7, RcsB D56A (Salmonella enterica serovar Typhimurium, UniProt P58663 1-210, D56A); assay: EMSA
T7 sequence: T1 sequence with D56A

RcsB M88A = biological target: T8, RcsB M88A (Salmonella enterica serovar Typhimurium, UniProt P58663 1-210, M88A); assay: EMSA
T8 sequence: T1 sequence with M88A

RcsB A93D = biological target: T9, RcsB A93D (Salmonella enterica serovar Typhimurium, UniProt P58663 1-210, A93D); assay: EMSA
T9 sequence: T1 sequence with A93D

RcsB WT [4] = biological target: T1, RcsB WT; assay: EMSA; remark: listed apart in the source

B1: RcsB from Salmonella enterica serovar Typhimurium (residues 1-210), wild type (natural protein, UniProt P58663 1-210, looked up)
chain: T1 sequence
stoichiometry N (crystal structure [1]): 2

B2: RcsB S207C variant (natural protein, Salmonella enterica serovar Typhimurium, UniProt P58663 1-210, looked up)
chain: T1 sequence with S207C
stoichiometry N (crystal structure [2]): 2 and 6

B3: RcsB M88A variant, incubated with acetylphosphate (natural protein, Salmonella enterica serovar Typhimurium, UniProt P58663 1-210, looked up)
chain: T1 sequence with M88A
modifications: phosphorylated (D56) by incubation with acetylphosphate; higher level than the WT
binding result (SEC): binds

B4: Phosphorylated RcsB from S. Typhimurium (wild type incubated with acetylphosphate) (natural protein, Salmonella enterica serovar Typhimurium, UniProt P58663 1-210, looked up)
chain: T1 sequence
modifications: phosphorylated at D56 by incubation with acetylphosphate (AcP)
stoichiometry N (SEC): 2

B5: RcsB E170A variant, incubated with acetylphosphate (natural protein, Salmonella enterica serovar Typhimurium, UniProt P58663 1-210, looked up)
chain: T1 sequence with E170A
modifications: phosphorylated (D56) by incubation with acetylphosphate; reduced level against the WT
binding result (SEC): binds

B6: P1flhDC (dsDNA)
DNA 1: CGTCGAATTAGGAAAAATCTTAGGCA
DNA 2: TGCCTAAGATTTTTCCTAATTCGACG
binding result (RcsB WT [3]): binds
binding result (RcsB H12A): no binding
binding result (RcsB K180A): no binding
binding result (RcsB L202D): no binding
binding result (RcsB Q185A): no binding
binding result (RcsB L202F): binds
binding result (RcsB D56A): no binding
binding result (RcsB M88A): binds
binding result (RcsB A93D): no binding

B7: rcsA promoter (dsDNA)
DNA 1: CCTGTTTTACTAAGGTTTATCCGAAAATA
DNA 2: TATTTTCGGATAAACCTTAGTAAAACAGG
binding result (RcsB K180A): no binding
binding result (RcsB Q185A): no binding
binding result (RcsB WT [4]): binds
binding result (RcsB A93D): no binding
